In assay [1] the target is rhNav1.7α + β1-β2-β3 (rhesus monkey). Nature of the assay: competition FACS vs EC25 of 275B05(N93R), CHO FlpIn, + 50 µM human SA.
Assay [2] has as its target huNav1.7α + β1-β2-β3 (human) (UniProt Q15858). The description is as above.
In assay [3] the target is rhNav1.7α + β1-β2-β3 (rhesus monkey). Description: competition FACS vs EC25 of 275B05(N93R), CHO FlpIn.
Assay [4] addresses huNav1.7α + β1-β2-β3 (human) (UniProt Q15858). Described as above.
Assay [5] addresses rhNav1.7α + β1-β2-β3 (rhesus monkey). Nature of the assay: cell-based or functional assay.
The next assay concerns the target huNav1.7α + β1 (human) (UniProt Q15858). Nature of the assay: cell-based or functional assay.
In assay [6] the target is rhNav1.7α + β1-β2-β3 (rhesus monkey). Description: competition FACS IC50 with 50 µM human SA against without.
The target of assay [7] is huNav1.7α + β1-β2-β3 (human) (UniProt Q15858). The assay is described as above.

B1: F010301555 (bispecific antibody, part only; not given: Anti-albumin building block, part only)
chain, part: DVQLVESGGGLVQPGGSLRLSCAASGPVFNINSMAWYRRAPGKQRELVAYSTPGWDWNYADSVKGRFTISRDNAKRVYLQMNSLTPEDTAVYYCRWLLQPSIYDISRTYWGQGTLVTVSSGGGGSGGGS
With B1, the 50% inhibitory concentration (IC50) (as a rule, the concentration that gives 50% inhibition) in assay [1] came to 880 nM; in assay [2], 1200 nM; in assay [3], 92 nM; in assay [4], 140 nM. Moreover, the Human SA ratio of QPatch IC50 (in assay [5]; with huNav1.7α + β1 (human)) was 7 in each case. In addition, the QPatch electrophysiology IC50 [M], HEK cells was determined as 3.5e-08 M in assay [5] and 4.7e-08 M with huNav1.7α + β1 (human). Also, the QPatch electrophysiology IC50 [M], HEK cells, + 10 µM human SA turned out to be 2.6e-07 M in assay [5] and 3.4e-07 M with huNav1.7α + β1 (human). The Human SA ratio was 10 in assay [6] and 8 in assay [7].
